The record followed here is paper PMC12410373, “Sad from Proteobacteria is a Structurally Distinct ALDH3 Enzyme Specialized for the Oxidation of Steroidal Aldehydes” (Biochemistry, 2025).

The test system of series [1] is C[C@H](C=O)[C@H]1CC[C@H]2[C@@H]3CCC4=CC(=O)CC[C@]4(C)[C@H]3CC[C@]12C. The series can be described thus: purified protein. Particulars: 1 mM NAD+, 100 mM HEPES pH 7.5, 25 °C.
For series [2], the system named is O=Cc1ccccc1. The series can be described thus: purified protein. Particulars: 1 mM NAD+, 100 mM HEPES pH 7.5, 25 °C.
Series [3] deals with T1, C[C@H](C=O)[C@H]1CC[C@H]2[C@@H]3CCC4=CC(=O)CC[C@]4(C)[C@H]3CC[C@]12C.
T1 construct: full-length, His tag (pET28a, NdeI/HindIII), E. coli BL21 LOBSTR
The series can be described thus: purified protein. Type of series: biochemical, Pseudomonas putida. Particulars: 1 mM NAD+, 100 mM HEPES pH 7.5, 25 °C.

For series [4], the system named is T2, O=Cc1ccccc1.
T2 construct: full-length, His tag (pET28a, NdeI/HindIII), E. coli BL21 LOBSTR
The series can be described thus: purified protein. Type of series: biochemical, Pseudomonas putida. Particulars: 1 mM NAD+, 100 mM HEPES pH 7.5, 25 °C.

Series [5] addresses steroid aldehyde dehydrogenase (Sad) from Caldimonas tepidiphilia (Caldimonas tepidiphilia). The series is described as follows: crystal structure; X-ray, 1.8 Å; sitting-drop vapor diffusion at 4 °C, 20 mg/mL Sad_(Ctepid), 40% MPD, 3% PEG 8000, 0.1 M sodium cacodylate pH 6.5, 10% glycerol; interface analysed with PISA.

For the substance PpBADH (Pseudomonas putida; F400A), in series [1], the Km – broadly, the substrate concentration at which the rate is half of its maximum – was 4.35 ± 0.167 µM; the kcat (usually the number of substrate molecules converted per active site and unit of time at saturation) stood at 0.00284 ± 3.34e-05 s⁻¹; the specificity constant (kcat/Km) (commonly the second-order rate constant that governs catalysis at low substrate concentration) was found to be 653 ± 75.1 M⁻¹ s⁻¹. The Km in the series on O=Cc1ccccc1 [2] was 59.5 ± 2.59 µM.

For “PpBADH (Pseudomonas putida; F400A/L125T)”, in series [3], the Km was found to be 1.73 ± 0.0801 µM, the kcat is 0.0431 ± 0.000719 s⁻¹ and the specificity constant (kcat/Km) was 24900 ± 1230 M⁻¹ s⁻¹. In addition, in the series with O=Cc1ccccc1 [4], the Michaelis constant (Km) was determined as 40.97 ± 2.58 µM, the kcat amounted to 0.037 ± 0.000756 s⁻¹ and the kcat/Km amounted to 903 ± 59.8 M⁻¹ s⁻¹.

As to PpBADH (Pseudomonas putida; L125T), in series [1], the Km was 18.94 ± 1.07 µM, the turnover number (kcat) is 0.0291 ± 0.000667 s⁻¹ and the catalytic efficiency (kcat/Km) is 1540 ± 36.8 M⁻¹ s⁻¹. In the series on O=Cc1ccccc1 [2], the Michaelis-Menten constant (Km) amounted to 3.18 ± 0.216 µM.

Take PpBADH (Pseudomonas putida; Y121A): the Michaelis constant (Km) in the series with O=Cc1ccccc1 [2] stood at 700.4 ± 31.9 µM.

For SadCtest (Comamonas testosteroni), in series [1], the Km stood at 1.93 ± 0.118 µM and the kcat came out at 3.57 ± 0.0818 s⁻¹.

On to “steroid aldehyde dehydrogenase (Sad) from Caldimonas tepidiphilia (enzyme)”, for which the stoichiometry N (usually a count of units in the complex or per binding partner) in series [5] amounted to 2.
